To fix the notation:
B1: 5'OH-gRNA:tRNA duplex (dsRNA)
RNA 1: CGAGGUAGUAGGUUGUAU
RNA 2: AAACGACGGCCAGUGCCAAGCUUACUAUACAACCUACUACCUCGU
modifications: guide 5'OH
B2: 5'P-gDNA:tRNA duplex (DNA:RNA)
DNA: CGAGGTAGTAGGTTGTAT
RNA: AAACGACGGCCAGUGCCAAGCUUACUAUACAACCUACUACCUCGU
modifications: guide 5' phosphate
B3: 5'OH-gDNA:tRNA duplex (DNA:RNA)
DNA: CGAGGTAGTAGGTTGTAT
RNA: AAACGACGGCCAGUGCCAAGCUUACUAUACAACCUACUACCUCGU
modifications: guide 5'OH
B4: 5'P-gRNA:tRNA duplex (dsRNA)
RNA 1: CGAGGUAGUAGGUUGUAU
RNA 2: AAACGACGGCCAGUGCCAAGCUUACUAUACAACCUACUACCUCGU
modifications: guide 5' phosphate
B5: 5'OH-gDNA:tDNA duplex (dsDNA)
DNA 1: CGAGGTAGTAGGTTGTAT
DNA 2: AAACGACGGCCAGTGCCAAGCTTACTATACAACCTACTACCTCGT
modifications: guide 5'OH
B6: 5'P-gRNA:tDNA duplex (DNA:RNA)
RNA: CGAGGUAGUAGGUUGUAU
DNA: AAACGACGGCCAGTGCCAAGCTTACTATACAACCTACTACCTCGT
modifications: guide 5' phosphate
B7: 5'OH-gRNA:tDNA duplex (DNA:RNA)
RNA: CGAGGUAGUAGGUUGUAU
DNA: AAACGACGGCCAGTGCCAAGCTTACTATACAACCTACTACCTCGT
modifications: guide 5'OH
B8: 5'P-gDNA:tDNA duplex (dsDNA)
DNA 1: CGAGGTAGTAGGTTGTAT
DNA 2: AAACGACGGCCAGTGCCAAGCTTACTATACAACCTACTACCTCGT
modifications: guide 5' phosphate

This data set has as its target T1, MhAgo_DM (Marinitoga hydrogenitolerans, UniProt A0A1M5A5Z8 1-640, D445A;D515A).
T1 sequence: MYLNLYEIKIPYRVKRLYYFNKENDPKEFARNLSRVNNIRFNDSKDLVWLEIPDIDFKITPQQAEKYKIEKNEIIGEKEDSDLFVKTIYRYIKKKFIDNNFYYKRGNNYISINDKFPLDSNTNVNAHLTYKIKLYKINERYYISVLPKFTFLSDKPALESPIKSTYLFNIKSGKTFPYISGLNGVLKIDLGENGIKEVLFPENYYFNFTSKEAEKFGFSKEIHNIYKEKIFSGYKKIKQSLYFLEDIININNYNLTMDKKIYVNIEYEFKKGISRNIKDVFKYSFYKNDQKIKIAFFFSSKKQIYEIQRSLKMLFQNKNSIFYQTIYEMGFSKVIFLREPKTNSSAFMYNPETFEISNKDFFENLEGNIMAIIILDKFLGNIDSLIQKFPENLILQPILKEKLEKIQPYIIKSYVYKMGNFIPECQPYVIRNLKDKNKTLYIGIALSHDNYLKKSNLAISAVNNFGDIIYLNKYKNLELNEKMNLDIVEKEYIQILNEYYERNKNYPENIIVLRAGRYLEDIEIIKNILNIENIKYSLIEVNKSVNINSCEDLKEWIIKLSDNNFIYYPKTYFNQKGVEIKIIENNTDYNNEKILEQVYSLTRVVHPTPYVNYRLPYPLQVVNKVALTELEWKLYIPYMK
Nature of the data set: EMSA. For orientation: Mobility shift assays separate free from complexed probe on a gel.
Usually Kd stands for the free concentration of one partner at which half of the binding sites on the other are occupied at equilibrium, for simple one-to-one binding. Low values mean tighter binding, high ones weaker binding. The molecule B1 showed a Kd of 125 ± 6.83 nM.
The same measure for B2: 140 ± 5.37 nM; for B3: 102 ± 1.69 nM.
The result for B4 reads 232 ± 5.07 nM.
The result for B5 reads 119 ± 4.8 nM; that for B6, 148 ± 4.52 nM; that for B7, 121 ± 4.66 nM.
Molecule B8 came in with a Kd of 145 ± 11.5 nM.

The record behind these values is paper doi:10.1101/2021.10.11.464003.
